Data on one molecule can be found in patent US12264201B2, “Bispecific antibody targeting IL-1R1 and NLPR3” (University of Ulster, priority 2018, dated 2025).

This assay concerns the target NLRP3 inflammasome (Homo sapiens, UniProt Q96P20). Briefly: In vitro assay of NLRP3 assembly (hybridoma clones). The note with it: compared among the hybridoma clones.

NLRP3 inflammasome, sequence (Q96P20 whole entry): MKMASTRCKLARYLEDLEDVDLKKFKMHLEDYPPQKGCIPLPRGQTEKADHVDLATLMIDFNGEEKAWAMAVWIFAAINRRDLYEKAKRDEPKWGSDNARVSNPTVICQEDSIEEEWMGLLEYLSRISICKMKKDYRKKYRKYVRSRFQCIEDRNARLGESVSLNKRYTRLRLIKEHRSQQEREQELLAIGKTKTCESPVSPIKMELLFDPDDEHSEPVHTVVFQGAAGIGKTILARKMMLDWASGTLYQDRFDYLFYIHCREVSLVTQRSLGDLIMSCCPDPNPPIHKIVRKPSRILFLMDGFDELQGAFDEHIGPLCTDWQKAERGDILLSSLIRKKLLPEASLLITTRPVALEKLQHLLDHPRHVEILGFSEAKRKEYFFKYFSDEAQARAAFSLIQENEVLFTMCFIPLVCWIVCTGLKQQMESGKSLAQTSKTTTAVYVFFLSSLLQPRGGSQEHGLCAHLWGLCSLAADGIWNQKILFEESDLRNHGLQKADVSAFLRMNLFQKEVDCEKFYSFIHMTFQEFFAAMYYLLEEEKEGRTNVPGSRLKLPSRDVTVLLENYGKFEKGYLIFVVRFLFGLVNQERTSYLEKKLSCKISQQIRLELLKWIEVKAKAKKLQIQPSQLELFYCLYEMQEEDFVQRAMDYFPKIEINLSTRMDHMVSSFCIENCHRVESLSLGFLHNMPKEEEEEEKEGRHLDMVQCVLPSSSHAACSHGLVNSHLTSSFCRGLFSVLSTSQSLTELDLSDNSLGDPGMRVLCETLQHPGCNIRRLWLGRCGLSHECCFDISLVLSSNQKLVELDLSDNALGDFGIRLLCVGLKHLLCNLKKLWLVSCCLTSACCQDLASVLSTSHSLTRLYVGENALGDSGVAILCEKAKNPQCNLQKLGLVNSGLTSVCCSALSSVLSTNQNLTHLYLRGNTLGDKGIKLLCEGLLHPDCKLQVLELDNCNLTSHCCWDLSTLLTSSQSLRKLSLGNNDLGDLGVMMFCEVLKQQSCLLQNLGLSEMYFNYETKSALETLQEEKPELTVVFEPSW

B1: F226 7A7-1E1-2D5: anti-NLRP3 monoclonal antibody from hybridoma clone, sequenced and used in the bispecific; VH SEQ ID NO: 36, VL SEQ ID NO: 43 (antibody)
VH: MDFGLSWVFLVLVLKGVQCEVQLVESGGGLVKPGGSLKLSCAASGFTFSDYYMYWVRQTPEKRLEWVATISDGGTYTYYPDSVKGRFTISRDNAKNNLYLQMNSLKSEDTAMYYCARGWVSTMVKLLSSFPYWGQGTLVTVSAAKTTPPSVYPLA
VL: MAWISLLFSLLALSSGAISQAVVTQESALTTSPGETVTLTCRSSTGAVTTSNYANWVQEKPDHLFTGLIGGTNNRAPGVPARFSGSLIGDKAALTITGAQTEDEAIYFCALWYSNYWVFGGGTKLTVLGQPKSSPSVTLFPPSTEKLSL
Take B1: the “preventing NLRP3 assembly” value was “most active”.
